Results as given in publication PMC2756588.

What was measured:
Assay in all cases: SPOT array
[1] = target: T1, Bud14, P27637; conditions: median of control spots 956
T1 sequence (P27637 247-328, looked up): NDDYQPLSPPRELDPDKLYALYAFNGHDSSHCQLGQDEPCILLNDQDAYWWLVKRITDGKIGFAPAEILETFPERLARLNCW

[2] = target: T2, Hse1, P38753; conditions: median of control spots 1727
T2 sequence (P38753 208-285, looked up): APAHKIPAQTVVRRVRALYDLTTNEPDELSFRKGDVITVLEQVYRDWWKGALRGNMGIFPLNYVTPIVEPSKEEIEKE

[3] = target: Bem1-1, P29366; conditions: median of control spots 4282
Chain of Bem1-1, P29366 (P29366 55-141): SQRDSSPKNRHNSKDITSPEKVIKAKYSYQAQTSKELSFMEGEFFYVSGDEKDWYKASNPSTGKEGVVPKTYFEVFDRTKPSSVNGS

[4] = target: GST; conditions: median of control spots 978
[5] = target: Myo3, P36006; conditions: median of control spots 468
[6] = target: T3, Hof1, Q05080; conditions: median of control spots 4086
T3 sequence (Q05080 590-669, looked up): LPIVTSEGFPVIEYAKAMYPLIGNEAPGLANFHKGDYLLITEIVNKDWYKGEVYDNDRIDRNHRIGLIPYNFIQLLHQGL

[7] = target: T4, Nbp2, Q12163; conditions: median of control spots 357
T4 sequence (Q12163 103-180, looked up): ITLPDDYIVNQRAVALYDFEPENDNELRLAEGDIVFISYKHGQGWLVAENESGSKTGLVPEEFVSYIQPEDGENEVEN

[8] = target: T5, Sla1-2, P32790; conditions: median of control spots 712
T5 sequence (P32790 60-140, looked up): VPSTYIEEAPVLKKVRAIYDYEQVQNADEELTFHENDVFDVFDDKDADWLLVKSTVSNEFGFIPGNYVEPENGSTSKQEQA

[9] = target: Rvs167, P39743; conditions: median of control spots 2707
Chain of Rvs167, P39743 (P39743 419-482): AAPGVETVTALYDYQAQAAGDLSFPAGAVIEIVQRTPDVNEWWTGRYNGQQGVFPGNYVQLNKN

[10] = target: T6, Lsb3, P43603; conditions: median of control spots 406
T6 sequence (P43603 385-451, looked up): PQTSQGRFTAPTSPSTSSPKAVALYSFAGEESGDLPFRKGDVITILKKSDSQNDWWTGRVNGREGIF

[11] = target: T7, Boi2, P39969; conditions: median of control spots 1161
T7 sequence (P39969 32-116, looked up): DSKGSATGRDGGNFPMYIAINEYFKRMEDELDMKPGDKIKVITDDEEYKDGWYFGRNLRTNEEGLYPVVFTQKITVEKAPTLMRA

[12] = target: T8, Fus1, P11710; conditions: median of control spots 1200
T8 sequence (P11710 432-512, looked up): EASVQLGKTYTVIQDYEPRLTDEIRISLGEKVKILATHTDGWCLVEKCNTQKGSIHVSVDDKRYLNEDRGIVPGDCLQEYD

[13] = target: T9, Lsb1, P53281; conditions: median of control spots 388
T9 sequence (P53281 45-122, looked up): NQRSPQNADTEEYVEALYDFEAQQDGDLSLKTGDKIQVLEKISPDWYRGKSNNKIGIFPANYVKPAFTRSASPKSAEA

[14] = target: T10, Pin3, Q06449; conditions: median of control spots 2171
T10 sequence (Q06449 53-122, looked up): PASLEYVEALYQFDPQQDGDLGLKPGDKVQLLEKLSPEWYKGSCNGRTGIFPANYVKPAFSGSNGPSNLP

[15] = target: T11, Bbc1, P47068; conditions: median of control spots 796
T11 sequence (P47068 1-78, looked up): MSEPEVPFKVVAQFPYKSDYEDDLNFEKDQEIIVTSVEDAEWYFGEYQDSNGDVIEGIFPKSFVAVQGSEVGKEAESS

[16] = target: T12, Cyk3, Q07533; conditions: median of control spots 1451
T12 sequence (Q07533 1-83, looked up): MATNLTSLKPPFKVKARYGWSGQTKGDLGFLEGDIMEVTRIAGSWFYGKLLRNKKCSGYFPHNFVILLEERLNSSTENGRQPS

[17] = target: T13, Bzz1-2, P38822; conditions: median of control spots 4538
T13 sequence (P38822 568-633, looked up): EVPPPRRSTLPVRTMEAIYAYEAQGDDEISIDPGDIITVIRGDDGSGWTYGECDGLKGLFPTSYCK

[18] = target: T14, Sla1-3, P32790; conditions: median of control spots 5475
T14 sequence (P32790 344-424, looked up): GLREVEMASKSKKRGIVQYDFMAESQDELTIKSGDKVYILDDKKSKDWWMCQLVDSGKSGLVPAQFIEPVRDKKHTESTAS

[19] = target: T15, Bzz1-1, P38822; conditions: median of control spots 4446
T15 sequence (P38822 478-572, looked up): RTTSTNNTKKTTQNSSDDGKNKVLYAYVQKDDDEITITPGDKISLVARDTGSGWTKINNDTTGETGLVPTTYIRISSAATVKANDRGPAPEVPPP

[20] = target: T16, Myo5, Q04439; conditions: median of control spots 471
T16 sequence (Q04439 1072-1160, looked up): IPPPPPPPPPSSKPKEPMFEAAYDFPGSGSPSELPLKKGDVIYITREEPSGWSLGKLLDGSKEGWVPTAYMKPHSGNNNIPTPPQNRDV

[21] = target: T17, Boi1, P38041; conditions: median of control spots 1162
T17 sequence (P38041 1-86, looked up): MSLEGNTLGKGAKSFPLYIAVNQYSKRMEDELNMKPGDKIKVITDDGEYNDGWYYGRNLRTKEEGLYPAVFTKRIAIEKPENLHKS

[22] = target: Bem1-2, P29366; conditions: median of control spots 4347
Chain of Bem1-2, P29366 (P29366 139-227): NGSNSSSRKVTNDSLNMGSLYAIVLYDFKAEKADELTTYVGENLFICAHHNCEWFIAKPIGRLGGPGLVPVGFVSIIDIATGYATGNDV

[23] = target: T18, Abp1, P15891; conditions: median of control spots 935
T18 sequence (P15891 535-592, looked up): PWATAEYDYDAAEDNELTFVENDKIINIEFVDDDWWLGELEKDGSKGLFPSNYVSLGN

[24] = target: T19, Lsb4, P32793; conditions: median of control spots 397
T19 sequence (P32793 402-468, looked up): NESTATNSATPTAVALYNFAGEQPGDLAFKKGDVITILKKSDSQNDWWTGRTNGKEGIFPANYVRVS

[25] = target: Sho1, P40073; conditions: median of control spots 1148
Chain of Sho1, P40073 (P40073 287-367): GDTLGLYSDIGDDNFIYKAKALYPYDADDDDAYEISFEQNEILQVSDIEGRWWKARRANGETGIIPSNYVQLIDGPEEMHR

[26] = target: T20, Cdc25, P04821; conditions: median of control spots 969
T20 sequence (P04821 50-136, looked up): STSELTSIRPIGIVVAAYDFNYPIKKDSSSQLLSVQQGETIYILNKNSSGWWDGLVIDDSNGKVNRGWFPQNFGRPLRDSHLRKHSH

[27] = target: T21, Pex13, P80667; conditions: median of control spots 1341
T21 sequence (P80667 295-386, looked up): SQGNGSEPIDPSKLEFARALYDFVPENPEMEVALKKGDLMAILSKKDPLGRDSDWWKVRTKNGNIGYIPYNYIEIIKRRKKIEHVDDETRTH

MARRRLPDRPPNGIG
SPOT intensity [1]: 4 | SPOT intensity [2]: 126 | SPOT intensity [3]: 0 | SPOT intensity [4]: 0 | SPOT intensity [5]: 15 | SPOT intensity [6]: 130 | SPOT intensity [7]: 3 | SPOT intensity [8]: 1 | SPOT intensity [9]: 1590 | SPOT intensity [10]: 175 | SPOT intensity [11]: 0 | SPOT intensity [12]: 0 | SPOT intensity [13]: 587 | SPOT intensity [14]: 91 | SPOT intensity [15]: 69 | SPOT intensity [16]: 0 | SPOT intensity [17]: 160 | SPOT intensity [18]: 36 | SPOT intensity [19]: 0 | SPOT intensity [20]: 5 | SPOT intensity [21]: 0 | SPOT intensity [22]: 78 | SPOT intensity [23]: 113 | SPOT intensity [24]: 533 | SPOT intensity [25]: 393 | SPOT intensity [26]: 14 | SPOT intensity [27]: 99

LYKRKPILLPDPKPL
SPOT intensity [1]: 1 | SPOT intensity [2]: 2 | SPOT intensity [3]: 0 | SPOT intensity [4]: 2 | SPOT intensity [5]: 0 | SPOT intensity [6]: 0 | SPOT intensity [7]: 1 | SPOT intensity [8]: 0 | SPOT intensity [9]: 0 | SPOT intensity [10]: 0 | SPOT intensity [11]: 0 | SPOT intensity [12]: 0 | SPOT intensity [13]: 1210 | SPOT intensity [14]: 7 | SPOT intensity [15]: 2 | SPOT intensity [16]: 0 | SPOT intensity [17]: 0 | SPOT intensity [18]: 0 | SPOT intensity [19]: 0 | SPOT intensity [20]: 1 | SPOT intensity [21]: 0 | SPOT intensity [22]: 0 | SPOT intensity [23]: 43 | SPOT intensity [24]: 0 | SPOT intensity [25]: 15 | SPOT intensity [26]: 0 | SPOT intensity [27]: 1

GAGERPRLVPRPINV
SPOT intensity [1]: 0 | SPOT intensity [2]: 7 | SPOT intensity [3]: 3 | SPOT intensity [4]: 0 | SPOT intensity [5]: 0 | SPOT intensity [6]: 11 | SPOT intensity [7]: 2 | SPOT intensity [8]: 1 | SPOT intensity [9]: 4 | SPOT intensity [10]: 60 | SPOT intensity [11]: 0 | SPOT intensity [12]: 0 | SPOT intensity [13]: 18 | SPOT intensity [14]: 5 | SPOT intensity [15]: 30 | SPOT intensity [16]: 3 | SPOT intensity [17]: 0 | SPOT intensity [18]: 0 | SPOT intensity [19]: 1 | SPOT intensity [20]: 1 | SPOT intensity [21]: 3 | SPOT intensity [22]: 1 | SPOT intensity [23]: 9 | SPOT intensity [24]: 105 | SPOT intensity [25]: 4 | SPOT intensity [26]: 18 | SPOT intensity [27]: 24

NLDRSKISLPDFDDE
SPOT intensity [1]: 20 | SPOT intensity [2]: 3 | SPOT intensity [3]: 3 | SPOT intensity [4]: 36 | SPOT intensity [5]: 1 | SPOT intensity [6]: 8 | SPOT intensity [7]: 6 | SPOT intensity [8]: 1 | SPOT intensity [9]: 6 | SPOT intensity [10]: 0 | SPOT intensity [11]: 2 | SPOT intensity [12]: 4 | SPOT intensity [13]: 84 | SPOT intensity [14]: 8 | SPOT intensity [15]: 15 | SPOT intensity [16]: 4 | SPOT intensity [17]: 3 | SPOT intensity [18]: 2 | SPOT intensity [19]: 3 | SPOT intensity [20]: 0 | SPOT intensity [21]: 7 | SPOT intensity [22]: 0 | SPOT intensity [23]: 23 | SPOT intensity [24]: 5 | SPOT intensity [25]: 16 | SPOT intensity [26]: 35 | SPOT intensity [27]: 3
